Reference: patent US20200299380A1 (published 2020)

T1: recombinant human MICA extracellular domain recombinant-His protein (MICA*001 allele) (human, UniProt Q29983 24-297)
T1 construct: also called MICA*001-His; MICA-His; not shown: His tag
T1 sequence: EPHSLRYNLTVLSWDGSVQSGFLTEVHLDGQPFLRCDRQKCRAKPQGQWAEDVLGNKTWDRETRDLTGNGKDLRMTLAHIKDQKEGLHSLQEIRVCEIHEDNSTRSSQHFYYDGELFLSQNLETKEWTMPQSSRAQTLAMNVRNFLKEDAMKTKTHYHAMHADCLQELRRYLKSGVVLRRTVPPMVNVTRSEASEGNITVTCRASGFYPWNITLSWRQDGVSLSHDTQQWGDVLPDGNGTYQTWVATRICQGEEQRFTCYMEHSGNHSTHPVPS

T2: MICA*004 expressed at the cell surface (human, UniProt Q29983 24-297)
T2 construct: also called C1R-MICA*004; C1R-MICA*04
T2 chain: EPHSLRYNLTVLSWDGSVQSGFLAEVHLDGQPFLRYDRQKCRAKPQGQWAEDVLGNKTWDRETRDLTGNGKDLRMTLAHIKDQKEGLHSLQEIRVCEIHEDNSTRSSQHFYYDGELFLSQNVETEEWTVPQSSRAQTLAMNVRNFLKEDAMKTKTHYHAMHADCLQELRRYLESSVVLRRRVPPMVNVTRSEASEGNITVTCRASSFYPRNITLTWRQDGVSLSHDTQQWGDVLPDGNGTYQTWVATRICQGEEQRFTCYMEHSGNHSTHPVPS

T3: MICA*001 expressed at the cell surface (human, UniProt Q29983 24-297)
T3 construct: the protein on cells also has its transmembrane and cytoplasmic parts (Genbank AAB41060); also called C1R-MICA*001; C1R-MICA*01
T3 sequence: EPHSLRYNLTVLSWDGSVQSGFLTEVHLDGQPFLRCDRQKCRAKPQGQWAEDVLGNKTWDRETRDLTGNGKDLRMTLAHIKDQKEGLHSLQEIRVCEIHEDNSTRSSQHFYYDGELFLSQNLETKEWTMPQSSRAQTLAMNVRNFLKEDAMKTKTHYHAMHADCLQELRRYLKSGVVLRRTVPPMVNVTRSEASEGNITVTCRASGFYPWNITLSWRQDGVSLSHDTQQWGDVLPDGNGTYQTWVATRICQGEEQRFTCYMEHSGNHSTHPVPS

T4: MICA*007 expressed at the cell surface (human, UniProt Q29983 24-297)
T4 construct: also called C1R-MICA*007; C1R-MICA*07
T4 chain: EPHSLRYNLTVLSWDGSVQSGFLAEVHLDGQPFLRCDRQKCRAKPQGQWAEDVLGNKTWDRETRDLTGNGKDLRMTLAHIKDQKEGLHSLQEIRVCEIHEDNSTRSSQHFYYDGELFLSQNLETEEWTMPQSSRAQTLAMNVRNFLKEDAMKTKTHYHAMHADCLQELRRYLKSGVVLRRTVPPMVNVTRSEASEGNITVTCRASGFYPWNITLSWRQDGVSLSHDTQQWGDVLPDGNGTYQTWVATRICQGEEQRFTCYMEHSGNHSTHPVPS

T5: MICA*008 expressed at the cell surface (human, UniProt Q29983 24-297)
T5 construct: also called C1R-MICA*008; C1R-MICA*08
T5 chain: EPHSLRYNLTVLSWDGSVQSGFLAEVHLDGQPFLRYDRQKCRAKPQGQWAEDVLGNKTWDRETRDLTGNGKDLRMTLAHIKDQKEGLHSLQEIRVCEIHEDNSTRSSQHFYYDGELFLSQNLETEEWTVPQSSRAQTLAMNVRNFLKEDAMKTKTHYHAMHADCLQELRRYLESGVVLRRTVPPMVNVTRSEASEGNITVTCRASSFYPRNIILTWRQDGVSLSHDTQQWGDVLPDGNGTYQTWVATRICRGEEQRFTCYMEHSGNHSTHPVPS

T6: MICA*001-BirA (human, UniProt Q29983 24-297)
T6 construct: also called MICA-BirA; MICA*01-BirA; not shown: BirA tag
T6 sequence: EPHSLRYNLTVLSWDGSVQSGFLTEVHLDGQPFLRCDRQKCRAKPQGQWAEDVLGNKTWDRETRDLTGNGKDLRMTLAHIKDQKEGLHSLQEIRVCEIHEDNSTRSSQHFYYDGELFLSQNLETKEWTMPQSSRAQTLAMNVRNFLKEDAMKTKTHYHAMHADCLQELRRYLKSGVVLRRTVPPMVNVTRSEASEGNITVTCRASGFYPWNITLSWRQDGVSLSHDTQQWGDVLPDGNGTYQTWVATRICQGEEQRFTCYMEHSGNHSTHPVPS

T7: MICB-Fc (R&D Systems 1599-MB) (human, UniProt Q29980 23-298, limits assumed)
T7 construct: Bought; also called human MICB-Fc; not shown: Fc of the bought fusion protein
T7 sequence: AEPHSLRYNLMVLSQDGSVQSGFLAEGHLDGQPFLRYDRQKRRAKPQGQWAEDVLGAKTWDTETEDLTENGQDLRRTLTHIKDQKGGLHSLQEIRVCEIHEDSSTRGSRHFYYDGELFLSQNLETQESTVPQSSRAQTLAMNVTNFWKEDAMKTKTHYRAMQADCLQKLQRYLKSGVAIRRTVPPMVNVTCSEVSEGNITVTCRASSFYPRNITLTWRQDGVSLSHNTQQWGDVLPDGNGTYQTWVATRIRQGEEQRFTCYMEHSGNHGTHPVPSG

B1: biotin-conjugated mouse antibody 20C6 (antibody, V domains shown)
VH: QITLKESGPGILKPSQTLSLTCSFSGFSLSTSGMGVGWIRQPSGKGLEWLAHIWWDDDKYYNPSLKSQLTISKDTSRNQVFLRITSVDTADTATYYCARRTQGYFDYWGQGTTLTVSS
VL: DIVMTQSPATLSVTPGDRVSLSCRASQSISDYLHWYQQKSHESPRLLIKYASQSISGIPSRFSGSGSGSDFTLSINSVEPEDVGVYYCQNGHSFPWTFGGGTKLEIK
notes: also called 20C6 (mouse)
B2: CHG1-M-MIA-12A10 (antibody, human IgG1, V domains shown)
VH: QVQLQQSGADLVRPGASVRLSCRASGYSFTNYWMNWVKQRPGQGLEWIGMIHPSDSETRLNQKFKDKATLTVDKSSNTAYMQLSSPTSEDSAIYYCARDDFFTMDYWGQGTSVTVSS
VL: DILLTQSPAILSVSPGERVSFSCRASQNIVTSIHWYQQSTNGSPRLLIKYASESISGIPSRFSGSGSGTDFTLTINSVESEDVADYYCQQSNIWPLTFGAGTKLELK
notes: the VH entry ends with ASTK
B3: CHG1-M-MIA-14B4 (antibody, V domains shown)
VH: QVQLQQPGAELVRPGASVKLSCKASGYSFTSYWMNWMKQRPGQGLEWIGMIHPSDSETRLNQKFKDKATLTVDKSSSTAYMQLNSPTSEDSAVYYCAREMGPYTLDYWGQGTSVTVSS
VL: DILLTQSPAILSVSPGARVSFSCRASQNIDTSIHWYQQRTNGSPRLLIKYASESISGIPSRFSGSGSGTDFTLSINSVESEDIADYYCQQSNYWPLTFGAGTKLELK
notes: the VH entry ends with ASTK
B4: biotin-conjugated mouse antibody 9C10 (antibody, V domains shown)
VH: QVQLQQPGAELVRPGTSVNLSCKASGYSFTRYWMNWVKQRPGQGLEWIGMIHPSDSETRLNQKFKDKATLTVDKSSSTAYMQLSSPTSEDSAVYYCGYGNFFYVMDYWGQGTSVTVSS
VL: DILLTQSPAILSVSPGERVSFSCRASQSIGTSIHWYQQRTNGSPRLLIKFASESISGIPSRFSGSGSGTDFTLNINSVESEDIADYYCQQSNFWPFTFGSGTKLEVK
notes: also called 9C10 (mouse)
B5: biotin-conjugated mouse antibody 6E4 (antibody, V domains shown)
VH: EVQLVESGGALVKPGGSLKLSCAASGFTFSYYAMSWVRQTPEKRLEWVATISRGGNYIYYTDSVKGRFTISRDNAKNTLYLQMTSLRSEDTAMFYCASISDYDGAWLAYWGQGTLVTV
VL: DVLMTQTPLSLPVSLGDQASISCRSSQSIIHTNGNTYLEWYLQKPGQSPKLLIYKISNRFSGVPDRFSGSGSGTDFTLKISRVEAEDLGVYYCFQGSHVPWTFGGGTKLEIK
notes: also called 6E4 (mouse)

Tests used:
[1] = biological target: T1, recombinant human MICA extracellular …; test: SPR (Biacore T100), monovalent affinity
[2] = biological target: T1, recombinant human MICA extracellular …; test: SPR (Biacore T100), bivalent mean KD at pH 7.4, MICA*001-His on NTA chip, antibody injected
Protocol: The binding of 6E4, 20C6 and 16A8 to either recombinant human MICA extracellular domain recombinant protein monomers or dimers (MICA*019 allele-Fc protein or MICA*001-His protein) as well as other NKG2D ligands MICB and ULBP1-2 was analyzed by Surface Plasmon Resonance (SPR) using a Biacore T100 apparatus to obtain monovalent and bivalent affinity, respectively.
Each cycle consisted of three steps. Firstly, the NTA chip was activated with NiSO₄ (500 mM). Secondly, the MICA-His protein (diluted to 10 μg/ml in running buffer HBS-P) was immobilized onto the surface via a 2 min injection at a constant flowrate of 10 μL/min. Then the antibody was injected over the immobilized antigen for 2 min at the flow rate of 40 μl/min. Subsequently, the running buffer was injected for 5 min at 40 μl/min for antibody dissociation analysis. After each cycle, the surface was regenerated by a 60s injection of 0.5M EDTA, pH 8.3 to completely strip the surface of the remaining antigen and antibody. The resulting sensorgrams were analyzed by global fitting using the appropriate model.

[3] = biological target: T2, MICA*004 expressed at the cell surface; test: flow cytometry on C1R transfectant cells, 4-parameter logistic fit
Protocol: (§1) The binding of antibodies obtained from the first, second and third immunization series (including CHG1-M-MIA-19E9, CHG1-M-MIA-9C10, CHG1-M-MIA-6E4, CHG1-M-MIA-20C6, CHG1-M-MIA-16A8, CHG1-M-MIA-12A10, CHG1-M-MIA-10A7, CHG1-M-MIA-18E8, CHG1-M-MIA-10F3, CHG1-M-MIA-15F9 and CHG1-M-MIA-14B4) were tested for binding to MICA-expressing CR1 transfectant cells C1R-MICA*001, C1R-MICA*004, C1R-MICA*007 and C1R-MICA*008 (Pr. A. Steinle, Eberhard-Karls University Tuebingen, Germany) described in Salih et al. (2003) Blood 102(4): […]. Binding was analyzed by flow cytometry.
(§2) Cells were harvested and stained in PBS 1×/BSA 0.2%/EDTA 2 mM buffer during 30 minutes at 4° C. using a dose-range of the anti-MICA mAbs. After two washes in staining buffer, cells were stained for 30 min at 4° C. with mouse anti-human IgG1-PE monoclonal antibodies (1/11). After two washes, stainings were acquired on a BD FACS Canto II and analyzed using the FlowJo software.
(§3) Antibodies CHG1-M-MIA-19E9, CHG1-M-MIA-9C10, CHG1-M-MIA-6E4, CHG1-M-MIA-20C6, CHG1-M-MIA-12A10, CHG1-M-MIA-10A7, CHG1-M-MIA-18E8, CHG1-M-MIA-10F3, and CHG1-M-MIA-15F9 bound to each of the C1R-MICA*001, C1R-MICA*004, C1R-MICA*007 and C1R-MICA*008 cells (see FIG. 1A for antibodies CHG1-M-MIA-19E9, CHG1-M-MIA-9C10, CHG1-M-MIA-6E4, CHG1-M-MIA-20C6, CHG1-M-MIA-12A10, CHG1-M-MIA-10F3, and FIG. 1B for antibodies, CHG1-M-MIA-18E8, CHG1-M-MIA-15F9, CHG1-M-MIA-10A7). […] EC50 values are shown in Table C in μg/ml (calculated using a 4-parameter logistic fit).

[4] = biological target: T3, MICA*001 expressed at the cell surface; test: as above
Protocol: as §1, §2, §3

[5] = biological target: T4, MICA*007 expressed at the cell surface; test: as above
Protocol: as §1, §2, §3

[6] = biological target: T5, MICA*008 expressed at the cell surface; test: as above
Protocol: as §1, §2, §3

[7] = biological target: T6, MICA*001-BirA; test: SPR single cycle kinetics, monovalent mean KD at pH 7.4, antibody captured on Protein-G chip, MICA-BirA injected
Protocol: For monovalent affinity measurement, chimeric anti-MICA antibodies were captured onto a Protein-G chip.
Affinities were determined using single cycle kinetics (SCK). SCK cycles were as follows: Successive 120s injections at 30 μl/min of 5 serial dilutions (0.01 to 100 nM) of MICA-His or MICA-BirA in ascending order (or of buffer for the blank injections to be subtracted during the analysis). After the last concentration is injected, complex is left to dissociate for 600s before regeneration by a 10s injection of appropriate regeneration buffer at 40 μl/min. After the regeneration, chip is left to stabilise for 60s in running buffer. Curves are fitted using Biacore T100 Evaluation software.

[8] = biological target: T7, MICB-Fc (R&D Systems 1599-MB); test: SPR, antibody injected over immobilized MICB-Fc
Protocol: For cross-binding study, the human ULBP-1-Fc (R&D systems*), MICB-Fc (*), ULBP-2-Fc (*) and ULBP-3-Fc (*) recombinant proteins were covalently immobilized respectively on the flow cell one to four of a CM5 sensorchip. Anti-MICA antibodies (at a constant concentration of 10 μg/ml) were injected for 2 minutes at a flow rate of 10 μl/min onto the four flow cells in parallel. After each cycle, Sensorchip was regenerated by a five second injection of appropriate regeneration buffer.

Kd [1] [nM]	Kd [2] [nM]	EC50 [3] [µg/mL]	EC50 [4] [µg/mL]	EC50 [5] [µg/mL]	EC50 [6] [µg/mL]	Kd [7] [nM]	binding result [8]	Binder
6.5	0.33							B1
		0.26	1.3	1.43	0.25	53	no binding (tested: 10 µg/ml)	B2
		0.24	12.7		0.3		no binding (tested: 10 µg/ml)	B3
	0.00062							B4
2	0.031							B5
